These results are taken from the supplement of paper PMC9112550, “Optimization of the antimicrobial peptide Bac7 by deep mutational scanning” (BMC Biology, 2022).

In the data set the test system is Escherichia coli TOP10. Nature of the data set: shrunken log2 fold change of peptide-encoding DNA abundance (4.5 h post-induction vs induction); higher = less antimicrobial activity (less host growth inhibition). The conditions noted are these: time post-induction: 4.5 h; library: site-saturation at positions 5, 18, 19, 20.
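Note: peptides expressed intracellularly from a pBAD plasmid library in pooled LB shake-flask culture, induced with 0.3% L-arabinose, DNA abundance read by NGS, three biological replicates, DESeq2 with apeglm shrinkage.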

As for RRIRMRPPRLPRPRPRPHTIPRP, the “shrunken log2 fold change” value amounted to 0.0593.

Regarding RRIRFRPPRLPRPRPRPHNIPRP, the “shrunken log2 fold change” value was -0.501.

Consider RRIRERPPRLPRPRPRPMLKPRP, for which the “shrunken log2 fold change” value was -0.292.

Consider RRIRQRPPRLPRPRPRPTEQPRP, for which the “shrunken log2 fold change” value stood at 0.0331.

Take RRIRRRPPRLPRPRPRPFVQPRP: the “shrunken log2 fold change” value was -0.0288.

Take RRIRWRPPRLPRPRPRPYIWPRP: the “shrunken log2 fold change” value was -0.477.

RRIRDRPPRLPRPRPRPYQKPRP: the “shrunken log2 fold change” value turned out to be 0.0212.

In the case of RRIRGRPPRLPRPRPRPCAFPRP, the “shrunken log2 fold change” value was determined as 2.03.

For the sequence RRIRMRPPRLPRPRPRPGAVPRP, the “shrunken log2 fold change” value was 0.873.

As for RRIRNRPPRLPRPRPRPFQVPRP, the “shrunken log2 fold change” value is -0.134.

In the case of RRIRQRPPRLPRPRPRPDLNPRP, the “shrunken log2 fold change” value was determined as 0.0947.

Take RRIRWRPPRLPRPRPRPSWMPRP: the “shrunken log2 fold change” value is -0.0675.

In the case of RRIRVRPPRLPRPRPRPDDEPRP, the “shrunken log2 fold change” value was -0.125.

For RRIRTRPPRLPRPRPRPVYGPRP, the “shrunken log2 fold change” value was -0.167.

On to RRIRLRPPRLPRPRPRPMPSPRP, for which the “shrunken log2 fold change” value is -0.0353.

Consider RRIRGRPPRLPRPRPRPTFWPRP, for which the “shrunken log2 fold change” value was determined as 1.51.

For the sequence RRIRVRPPRLPRPRPRPRLVPRP, the “shrunken log2 fold change” value came out at 1.56.

Consider RRIRPRPPRLPRPRPRPGFRPRP, for which the “shrunken log2 fold change” value was found to be 0.138.

Consider RRIRGRPPRLPRPRPRPMTMPRP, for which the “shrunken log2 fold change” value turned out to be 0.146.

Take RRIRKRPPRLPRPRPRPINLPRP: the “shrunken log2 fold change” value is -0.00204.

With RRIRRRPPRLPRPRPRPECQPRP, the “shrunken log2 fold change” value worked out at 0.253.

RRIRCRPPRLPRPRPRPIEDPRP: the “shrunken log2 fold change” value came out at 0.102.

For the sequence RRIRRRPPRLPRPRPRPSGEPRP, the “shrunken log2 fold change” value is 0.387.

RRIRERPPRLPRPRPRPHKSPRP: the “shrunken log2 fold change” value was -0.0459.

As to RRIRLRPPRLPRPRPRPIGPPRP, the “shrunken log2 fold change” value turned out to be 0.0835.

For RRIRQRPPRLPRPRPRPMHIPRP, the “shrunken log2 fold change” value was -0.377.

In the case of RRIRHRPPRLPRPRPRPCMRPRP, the “shrunken log2 fold change” value worked out at 0.0267.

In the case of RRIRWRPPRLPRPRPRPMTHPRP, the “shrunken log2 fold change” value is -0.0884.

Consider RRIRQRPPRLPRPRPRPTYIPRP, for which the “shrunken log2 fold change” value is -0.0622.

In the case of RRIRPRPPRLPRPRPRPTLRPRP, the “shrunken log2 fold change” value is 0.449.

In the case of RRIRPRPPRLPRPRPRPYSLPRP, the “shrunken log2 fold change” value was -0.139.

RRIRPRPPRLPRPRPRPPRDPRP: the “shrunken log2 fold change” value was 0.521.

On to RRIRIRPPRLPRPRPRPIAPPRP, for which the “shrunken log2 fold change” value was -0.0686.

In the case of RRIRDRPPRLPRPRPRPDMPPRP, the “shrunken log2 fold change” value was -0.0262.

As to RRIRERPPRLPRPRPRPEQTPRP, the “shrunken log2 fold change” value is 0.111.

Take RRIRKRPPRLPRPRPRPDLKPRP: the “shrunken log2 fold change” value came out at 0.131.

For RRIRHRPPRLPRPRPRPFGKPRP, the “shrunken log2 fold change” value was 0.0294.

Regarding RRIRDRPPRLPRPRPRPLDNPRP, the “shrunken log2 fold change” value was -0.0187.

With RRIRFRPPRLPRPRPRPLEEPRP, the “shrunken log2 fold change” value is -0.0138.

For the sequence RRIRERPPRLPRPRPRPVHKPRP, the “shrunken log2 fold change” value was -0.581.

As to RRIRQRPPRLPRPRPRPVWQPRP, the “shrunken log2 fold change” value was found to be 0.232.

As for RRIRLRPPRLPRPRPRPHSYPRP, the “shrunken log2 fold change” value was -0.0533.

As to RRIRPRPPRLPRPRPRPWGRPRP, the “shrunken log2 fold change” value came out at 0.122.

As for RRIRSRPPRLPRPRPRPCECPRP, the “shrunken log2 fold change” value is -0.0304.

In the case of RRIRVRPPRLPRPRPRPYNFPRP, the “shrunken log2 fold change” value was -0.577.

For the sequence RRIRMRPPRLPRPRPRPKDRPRP, the “shrunken log2 fold change” value is 1.87.

In the case of RRIRTRPPRLPRPRPRPGTFPRP, the “shrunken log2 fold change” value was -0.116.

For the sequence RRIRCRPPRLPRPRPRPNNNPRP, the “shrunken log2 fold change” value is -0.797.

Consider RRIRRRPPRLPRPRPRPQCHPRP, for which the “shrunken log2 fold change” value is -0.0986.

Turning to RRIRIRPPRLPRPRPRPWLFPRP, the “shrunken log2 fold change” value came out at 0.0545.

Regarding RRIRGRPPRLPRPRPRPGSHPRP, the “shrunken log2 fold change” value was determined as 0.12.

With RRIRKRPPRLPRPRPRPMAFPRP, the “shrunken log2 fold change” value worked out at 0.25.

RRIRMRPPRLPRPRPRPATCPRP: the “shrunken log2 fold change” value was 0.398.

Regarding RRIRLRPPRLPRPRPRPDVAPRP, the “shrunken log2 fold change” value was determined as 0.093.

Turning to RRIRMRPPRLPRPRPRPRKTPRP, the “shrunken log2 fold change” value turned out to be 0.514.

For RRIRARPPRLPRPRPRPCWHPRP, the “shrunken log2 fold change” value came out at 0.134.

In the case of RRIRVRPPRLPRPRPRPETVPRP, the “shrunken log2 fold change” value was -0.103.

On to RRIRDRPPRLPRPRPRPWFKPRP, for which the “shrunken log2 fold change” value was -0.203.

Regarding RRIRPRPPRLPRPRPRPCHCPRP, the “shrunken log2 fold change” value was 0.153.

With RRIRARPPRLPRPRPRPDWDPRP, the “shrunken log2 fold change” value worked out at 0.341.

Turning to RRIRLRPPRLPRPRPRPHVHPRP, the “shrunken log2 fold change” value is -0.0727.

Consider RRIRQRPPRLPRPRPRPMTVPRP, for which the “shrunken log2 fold change” value is -0.00149.

For the sequence RRIRYRPPRLPRPRPRPNKCPRP, the “shrunken log2 fold change” value was -0.269.

For the sequence RRIRLRPPRLPRPRPRPVDCPRP, the “shrunken log2 fold change” value is -0.456.

Take RRIRRRPPRLPRPRPRPGVSPRP: the “shrunken log2 fold change” value turned out to be 0.249.

Take RRIRIRPPRLPRPRPRPFKTPRP: the “shrunken log2 fold change” value came to 0.0132.

Regarding RRIRVRPPRLPRPRPRPAQNPRP, the “shrunken log2 fold change” value turned out to be 0.261.

On to RRIRCRPPRLPRPRPRPVPIPRP, for which the “shrunken log2 fold change” value was 0.0325.

For RRIRMRPPRLPRPRPRPTDPPRP, the “shrunken log2 fold change” value was found to be 0.00799.

For RRIRLRPPRLPRPRPRPEGMPRP, the “shrunken log2 fold change” value came out at 0.194.

Turning to RRIRHRPPRLPRPRPRPGWPPRP, the “shrunken log2 fold change” value came out at 0.424.

With RRIRKRPPRLPRPRPRPMTVPRP, the “shrunken log2 fold change” value came out at 0.0686.

Consider RRIRQRPPRLPRPRPRPRICPRP, for which the “shrunken log2 fold change” value was -0.083.

Take RRIRVRPPRLPRPRPRPSGIPRP: the “shrunken log2 fold change” value is -0.931.

Consider RRIRHRPPRLPRPRPRPREKPRP, for which the “shrunken log2 fold change” value was -0.0164.

As to RRIRKRPPRLPRPRPRPFTRPRP, the “shrunken log2 fold change” value was determined as 0.0464.

For the sequence RRIRSRPPRLPRPRPRPPMIPRP, the “shrunken log2 fold change” value is -0.17.

On to RRIRSRPPRLPRPRPRPAMIPRP, for which the “shrunken log2 fold change” value came out at 0.365.

Regarding RRIRQRPPRLPRPRPRPNWGPRP, the “shrunken log2 fold change” value is 0.105.

With RRIRFRPPRLPRPRPRPDKHPRP, the “shrunken log2 fold change” value is -0.478.

For the sequence RRIRLRPPRLPRPRPRPLILPRP, the “shrunken log2 fold change” value was -0.429.

For the sequence RRIRWRPPRLPRPRPRPKSMPRP, the “shrunken log2 fold change” value is -0.0141.

Turning to RRIRSRPPRLPRPRPRPQWEPRP, the “shrunken log2 fold change” value was determined as 0.022.

With RRIRFRPPRLPRPRPRPDNGPRP, the “shrunken log2 fold change” value is -0.13.

In the case of RRIRLRPPRLPRPRPRPCHRPRP, the “shrunken log2 fold change” value is 0.00936.

In the case of RRIRSRPPRLPRPRPRPQNPPRP, the “shrunken log2 fold change” value was -0.296.

For RRIRIRPPRLPRPRPRPWNSPRP, the “shrunken log2 fold change” value is -0.592.

Turning to RRIRNRPPRLPRPRPRPGAKPRP, the “shrunken log2 fold change” value is 0.362.

Consider RRIRYRPPRLPRPRPRPIASPRP, for which the “shrunken log2 fold change” value is -0.196.

With RRIRTRPPRLPRPRPRPDGDPRP, the “shrunken log2 fold change” value was determined as 0.052.

On to RRIRPRPPRLPRPRPRPRYDPRP, for which the “shrunken log2 fold change” value amounted to 0.0231.

Turning to RRIRFRPPRLPRPRPRPWHIPRP, the “shrunken log2 fold change” value was -0.213.

For the sequence RRIRHRPPRLPRPRPRPLHNPRP, the “shrunken log2 fold change” value was -0.602.

As for RRIRFRPPRLPRPRPRPYNFPRP, the “shrunken log2 fold change” value is -0.458.

As for RRIRQRPPRLPRPRPRPCIMPRP, the “shrunken log2 fold change” value was -0.748.

On to RRIRVRPPRLPRPRPRPDPGPRP, for which the “shrunken log2 fold change” value was -0.321.

With RRIRWRPPRLPRPRPRPYAAPRP, the “shrunken log2 fold change” value turned out to be 0.445.

As for RRIRNRPPRLPRPRPRPHKEPRP, the “shrunken log2 fold change” value is 0.0155.

With RRIRCRPPRLPRPRPRPYALPRP, the “shrunken log2 fold change” value is -0.115.

For the sequence RRIRERPPRLPRPRPRPDGLPRP, the “shrunken log2 fold change” value is 0.0424.

For RRIRERPPRLPRPRPRPALSPRP, the “shrunken log2 fold change” value worked out at 0.15.

For the sequence RRIRERPPRLPRPRPRPNFSPRP, the “shrunken log2 fold change” value was -0.114.

Consider RRIRDRPPRLPRPRPRPHTPPRP, for which the “shrunken log2 fold change” value came out at 0.0203.

On to RRIRARPPRLPRPRPRPEWMPRP, for which the “shrunken log2 fold change” value was 0.252.

For RRIRMRPPRLPRPRPRPHSWPRP, the “shrunken log2 fold change” value turned out to be 0.273.

As for RRIRWRPPRLPRPRPRPPNEPRP, the “shrunken log2 fold change” value was determined as 0.424.

As to RRIRPRPPRLPRPRPRPFSLPRP, the “shrunken log2 fold change” value was -0.365.

In the case of RRIRARPPRLPRPRPRPLRNPRP, the “shrunken log2 fold change” value was determined as 0.516.

Regarding RRIRERPPRLPRPRPRPAQKPRP, the “shrunken log2 fold change” value was 0.192.

RRIRPRPPRLPRPRPRPKFTPRP: the “shrunken log2 fold change” value is -0.141.

For the sequence RRIRTRPPRLPRPRPRPQEFPRP, the “shrunken log2 fold change” value was 0.0555.

For the sequence RRIRARPPRLPRPRPRPVLMPRP, the “shrunken log2 fold change” value was determined as 0.199.

Regarding RRIRDRPPRLPRPRPRPHLHPRP, the “shrunken log2 fold change” value is -0.0995.

For the sequence RRIRFRPPRLPRPRPRPYRQPRP, the “shrunken log2 fold change” value was -0.477.

Turning to RRIRQRPPRLPRPRPRPYMRPRP, the “shrunken log2 fold change” value was -0.0086.

Take RRIRPRPPRLPRPRPRPRMNPRP: the “shrunken log2 fold change” value was determined as 0.0159.

With RRIRLRPPRLPRPRPRPKLLPRP, the “shrunken log2 fold change” value is -0.331.

Consider RRIRGRPPRLPRPRPRPGSGPRP, for which the “shrunken log2 fold change” value amounted to 0.808.

With RRIRLRPPRLPRPRPRPVCCPRP, the “shrunken log2 fold change” value is -0.185.

As to RRIRWRPPRLPRPRPRPSAWPRP, the “shrunken log2 fold change” value stood at 0.319.

In the case of RRIRYRPPRLPRPRPRPFIAPRP, the “shrunken log2 fold change” value was -1.12.

On to RRIRQRPPRLPRPRPRPIQCPRP, for which the “shrunken log2 fold change” value amounted to 0.0238.

In the case of RRIRWRPPRLPRPRPRPYALPRP, the “shrunken log2 fold change” value was found to be 0.0509.

In the case of RRIRTRPPRLPRPRPRPKGEPRP, the “shrunken log2 fold change” value worked out at 0.0539.

Regarding RRIRMRPPRLPRPRPRPTHEPRP, the “shrunken log2 fold change” value came out at 0.439.
